This note sets out measurements from PMC5078793.

The assay addresses LTBP-1 C-terminal region (UniProt Q14766). Briefly: SPR; Biacore; LTBP-1 C-terminal region immobilised by amine coupling on CM5 (methods); 10 mM HEPES pH 7.4, 0.1 M NaCl, 0.5 mM CaCl2, 0.005% P20.

Chain of LTBP-1 C-terminal region (Q14766 24-1721): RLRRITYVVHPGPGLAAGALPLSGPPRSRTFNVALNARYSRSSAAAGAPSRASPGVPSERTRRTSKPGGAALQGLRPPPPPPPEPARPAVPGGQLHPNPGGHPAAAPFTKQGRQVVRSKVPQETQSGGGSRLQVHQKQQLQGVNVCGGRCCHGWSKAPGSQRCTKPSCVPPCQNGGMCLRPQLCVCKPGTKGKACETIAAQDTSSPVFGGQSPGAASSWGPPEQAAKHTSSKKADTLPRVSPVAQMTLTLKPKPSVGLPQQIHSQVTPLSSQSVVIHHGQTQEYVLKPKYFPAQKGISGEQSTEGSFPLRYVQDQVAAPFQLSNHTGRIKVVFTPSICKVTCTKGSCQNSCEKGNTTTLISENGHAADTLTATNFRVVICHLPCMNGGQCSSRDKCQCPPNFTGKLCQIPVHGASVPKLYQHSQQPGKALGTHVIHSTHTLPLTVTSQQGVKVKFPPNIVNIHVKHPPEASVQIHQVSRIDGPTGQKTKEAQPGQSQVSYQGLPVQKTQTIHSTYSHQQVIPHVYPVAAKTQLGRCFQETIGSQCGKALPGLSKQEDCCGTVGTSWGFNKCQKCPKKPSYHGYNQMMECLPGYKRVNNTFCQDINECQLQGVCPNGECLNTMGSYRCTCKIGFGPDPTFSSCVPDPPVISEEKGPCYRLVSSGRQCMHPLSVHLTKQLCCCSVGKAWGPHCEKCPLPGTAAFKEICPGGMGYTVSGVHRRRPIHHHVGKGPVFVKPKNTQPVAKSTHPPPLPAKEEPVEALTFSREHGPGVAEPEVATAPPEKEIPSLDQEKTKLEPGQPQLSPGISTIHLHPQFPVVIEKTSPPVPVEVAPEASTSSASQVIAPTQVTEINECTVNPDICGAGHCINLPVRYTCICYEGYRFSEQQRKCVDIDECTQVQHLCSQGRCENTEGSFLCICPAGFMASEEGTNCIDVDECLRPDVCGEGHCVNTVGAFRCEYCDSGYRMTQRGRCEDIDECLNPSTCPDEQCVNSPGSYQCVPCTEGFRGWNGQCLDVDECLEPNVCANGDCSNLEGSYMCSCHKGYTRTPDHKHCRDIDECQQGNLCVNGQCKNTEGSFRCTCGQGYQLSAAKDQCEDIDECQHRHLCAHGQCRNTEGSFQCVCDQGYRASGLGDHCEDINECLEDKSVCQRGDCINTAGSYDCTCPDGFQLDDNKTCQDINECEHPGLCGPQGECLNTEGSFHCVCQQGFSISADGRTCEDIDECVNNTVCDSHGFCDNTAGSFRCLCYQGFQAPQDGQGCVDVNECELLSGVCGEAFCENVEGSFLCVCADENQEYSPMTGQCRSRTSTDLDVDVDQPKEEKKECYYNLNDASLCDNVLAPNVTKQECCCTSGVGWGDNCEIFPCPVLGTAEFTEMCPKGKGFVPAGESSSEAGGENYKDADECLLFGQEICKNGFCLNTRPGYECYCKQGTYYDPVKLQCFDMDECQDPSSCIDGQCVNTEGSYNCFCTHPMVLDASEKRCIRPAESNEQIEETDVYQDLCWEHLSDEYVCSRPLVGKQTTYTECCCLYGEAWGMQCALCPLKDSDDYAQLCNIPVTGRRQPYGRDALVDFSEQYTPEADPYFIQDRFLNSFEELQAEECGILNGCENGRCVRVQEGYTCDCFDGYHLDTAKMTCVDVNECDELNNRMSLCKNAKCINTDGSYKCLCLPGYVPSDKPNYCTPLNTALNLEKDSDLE

B1: ADAMTS6 C-terminal region (domain or fragment)
chain: DGGWGPWSLWGECSRTCGGGVSSSLRHCDSPAPSGGGKYCLGERKRYRSCNTDPCPLGSRDFREKQCADFDNMPFRGKYYNWKPYTGGGVKPCALNCLAEGYNFYTERAPAVIDGTQCNADSLDICINGECKHVGCDNILGSDAREDRCRVCGGDGSTCDAIEGFFNDSLPRGGYMEVVQIPRGSVHIEVREVAMSKNYIALKSEGDDYYINGAWTIDWPRKFDVAGTAFHYKRPTDEPESLEALGPTSENLIVMVLLQEQNLGIRYKFNVPITRTGSGDNEVGFTWNHQPWSECSATCAGGVQRQEVVCKRLDDNSIVQNNYCDPDSKPPENQRACNTEPCPPEWFIGDWLECSKTCDGGMRTRAVLCIRKIGPSEEETLDYSGCLTHRPVEKEPCNNQSCPPQWVALDWSECTPKCGPGFKHRIVLCKSSDLSKTFPAAQCPEESKPPVRIRCSLGRCPPPRWVTGDWGQCSAQCGLGQQMRTVQCLSYTGQASSDCLETVRPPSMQQCESKCDSTPISNTEECKDVNKVAYCPLVLKFKFCSRAYFRQMCCKTCQGH
B1 returned a Kd of 59 nM.
